In the supplement of paper PMC10567573:

B1: WDR88 (parent)
chain: LLTITKAHSNAISNCCFTFSGHFL

Variants of: B1
Experiment: protein stability index of a GFP-peptide fusion (GPS, HEK-293T) (PSI 1-6); higher = more stable
Conditions: c terminus: a fixed tail appended
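Also: lentivirally expressed fusions sorted by FACS into six bins by GFP to DsRed ratio, PSI derived from sequencing read proportions per bin multiplied by bin number.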

Protein stability index of substitutions, site by site:
S20: L 2.94, R 3.76, C 2.69, T 2.67, Q 2.88, F 2.6, G 2.99, Y 2.36, V 2.54, A 1.09, E 2.51, W 2.06, K 2.04, P 2.34, I 2.07, M 2.56, N 2.94, D 1.98
H8: T 2.38, G 3.56, E 2.27, Q 2.24, D 3.88, W 2.17, I 2.57, F 2.59, R 3.29, L 3.6, P 2.35, A 3.08, N 2.03, K 3.13, Y 4.38, V 2.58, C 2.53, S 2.6
C15: G 2.42, A 4.06, T 3.89, R 3.77, K 2.11, S 2.97, P 2.19, L 2.27, H 2.78, V 3.3, M 2.19, Y 2.88, I 3.44, D 1.84, N 2.98, W 2.31, E 2.58, F 3.46, Q 3.52
A11: S 3.22, D 2.27, L 3.15, E 3.24, G 3.47, V 2.69, Q 3.19, W 2.7, N 3.27, H 2.82, M 2.82, F 2.93, P 3.08, T 3.57, K 2.66, C 1.97
N14: H 3.22, Q 1.82, L 4.15, T 2.94, G 3.72, C 3.23, D 3.07, A 1.44, F 3.06, M 2.99, S 2.39, V 2.52, Y 2.53, K 2.63, E 2.25, I 3.89, W 2.37, P 3.55
H22: K 2.06, M 3.59, W 3.16, T 2.83, S 2.34, R 1.27, Y 2.93, I 3.1, L 3.61, C 3.5, V 2.67, D 2.31, E 2.89, P 2.51, F 2.02, Q 2.78, N 2.9, G 2.96, A 2.56
L24: H 2.63, D 1.92, G 2.88, I 3.37, E 1.77, K 2.93, C 2.68, F 3.56, A 2.74
G21: H 2.53, W 2.94, I 2.97, Y 2.25, T 3.34, P 3, L 2.46, N 2.42, E 2.6, M 3.69, Q 2.92, D 2.75, R 1.97, V 2.89, C 2.31, F 2.41, A 2.88, S 3.32, K 2.77
N10: R 2.99, H 2.75, P 2.89, I 3.1, F 3.94, A 2.64, V 2.49, K 2.12, T 3.75, D 3.19, C 4.06, S 3.46, Q 3.31
T5: V 3.03, Y 3.34, S 3.33
C16: Q 2.41, N 4.12, M 3.28, G 2.75, L 3.05, P 2.25, F 3.35, K 2.37, H 2.61, A 3.4, T 2.9, S 2.44, R 1.87, I 2.8, Y 2.18, E 2.9, V 1.95, D 2.33
A7: Y 3.09, F 2.86, K 2.4, L 3.04, V 2.76, I 2.95, G 3.76, T 2.58, S 2.54, N 2.1, C 2.75, R 3.62, M 2.8, E 3.31, H 3.42, W 4.07, Q 3.22, P 2.04, D 1.86
F23: M 3.51, S 2.72, N 1.99, A 3.02, D 1.95, Y 2.94, I 2.79, V 1.99, Q 1.79, T 1.91, E 2.1, G 2.05, K 1.94, P 2.96, H 2.91, W 3.34
T18: Y 2.76, R 2.93, G 3.29, V 3.09, M 2.19, C 2.47, F 2.9, S 2.58, N 3.85, A 3.52, I 2.34, D 2.03, H 2.53, P 2.54, E 1.84, W 2.86, L 2.92, K 2.33
S9: N 3.57, Y 3.69, W 3.1, M 2.31, T 2.15, V 4.49, I 2.46, G 2.8, Q 3.42, L 2.95, F 4.2, K 2.83, C 1.89, A 3.55, D 3.12, H 2.45, P 2.39, R 1.77
I12: M 3.38, N 2.49, K 2.4, G 2.96, V 3.69, T 2.98, F 3.3, A 2.3, L 3.56, D 1.96, Q 2.57, C 3.49, P 2.55, H 3.51, R 2.74, S 3.14, Y 2.33, E 1.77
K6: W 3.12, R 2.72, V 2.84, H 3.03, S 2.44, A 2.8, Q 2.29, I 2.88, F 3.35, G 2.44, D 1.83, Y 1.83, T 2.78, E 2.67, C 2.9, L 3.35, M 2.66, N 3.18, P 3.02
F17: L 3.73, I 3.65, C 1.84, G 1.69, D 1.92, Q 2.58, H 1.42, W 1.45, Y 3.26, E 2.35, V 2.88, K 2.43, S 1.37, T 2.66, N 2.58, P 2.13, A 2.38, M 2.29
S13: C 2.35, H 3.44, Q 3.54, K 2.03, W 3.57, Y 2.48, A 2.17, M 3.08, I 3.51, F 3.89, R 2.7, G 2.7, N 2.6, D 2.2, P 3.02, L 3.23, T 3.02, E 2.6, V 2.2
F19: T 2.52, Y 2.82, P 1.88, H 3.04, W 2.32, S 2.56, A 2.16, V 2.15, K 1.82, R 2.66, M 1.69, D 2.38, G 2.62, N 2.33, E 1.77, L 2.82, I 2.85, Q 1.63, C 2.77
